According to patent US20240132578A1:

Tests used:
Assay in all cases: cell-based or functional assay
[1] = target: aMLV envelope, on pseudovirus (negative control)
[2] = target: HIV-1 Env of isolate MGRM-G-011 (subtype G), on pseudovirus (HIV-1)
[3] = target: HIV-1 Env of isolate MGRM-C-017 (subtype C) (HIV-1)
[4] = target: HIV-1 Env of isolate MGRM-C-024 (subtype C) (HIV-1)
[5] = target: HIV-1 Env of isolate MGRM-G-017 (subtype G), on pseudovirus (HIV-1)
[6] = target: HIV-1 Env of isolate MGRM-C-010 (subtype C) (HIV-1)
[7] = target: HIV-1 JR-CSF Env R480A (HIV-1 JR-CSF) (UniProt P20871)
[8] = target: HIV-1 Env of isolate MGRM-G-027 (subtype G), on pseudovirus (HIV-1)
[9] = target: HIV-1 Env of isolate MGRM-C-005 (subtype C) (HIV-1)
[10] = target: HIV-1 Env of isolate MGRM-C-022 (subtype C) (HIV-1)
[11] = target: HIV-1 Env of isolate MGRM-G-014 (subtype G), on pseudovirus (HIV-1)
[12] = target: HIV-1 Env of isolate MGRM-C-028 (subtype C) (HIV-1)
[13] = target: HIV-1 Env of isolate MGRM-G-006 (subtype G), on pseudovirus (HIV-1)
[14] = target: HIV-1 Env of isolate MGRM-G-013 (subtype G), on pseudovirus (HIV-1)
[15] = target: HIV-1 Env of isolate MGRM-C-004 (subtype C) (HIV-1)
[16] = target: HIV-1 Env of isolate MGRM-C-009 (subtype C) (HIV-1)
[17] = target: HIV-1 Env of isolate MGRM-C-007 (subtype C) (HIV-1)
[18] = target: HIV-1 Env of isolate MGRM-G-009 (subtype G), on pseudovirus (HIV-1)
[19] = target: HIV-1 Env of isolate MGRM-C-025 (subtype C) (HIV-1)
[20] = target: HIV-1 Env of isolate MGRM-C-008 (subtype C) (HIV-1)
[21] = target: HIV-1 Env of isolate MGRM-C-020 (subtype C) (HIV-1)
[22] = target: HIV-1 Env of isolate MGRM-C-019 (subtype C) (HIV-1)
[23] = target: HIV-1 Env of isolate MGRM-G-001 (subtype G), on pseudovirus (HIV-1)
[24] = target: HIV-1 Env of isolate MGRM-C-014 (subtype C) (HIV-1)
[25] = target: HIV-1 Env of isolate MGRM-G-015 (subtype G), on pseudovirus (HIV-1)
[26] = target: HIV-1 Env of isolate MGRM-G-028 (subtype G), on pseudovirus (HIV-1)
[27] = target: HIV-1 Env of isolate MGRM-C-002 (subtype C) (HIV-1)
[28] = target: HIV-1 Env of isolate MGRM-C-027 (subtype C) (HIV-1)
[29] = target: HIV-1 JR-CSF Env P470A (HIV-1 JR-CSF) (UniProt P20871)
[30] = target: HIV-1 Env of isolate MGRM-G-019 (subtype G), on pseudovirus (HIV-1)
[31] = target: HIV-1 Env of isolate MGRM-C-001 (subtype C) (HIV-1)
[32] = target: HIV-1 Env of isolate 98IN022 (subtype C) (HIV-1)
[33] = target: HIV-1 Env of isolate 93MW959 (subtype C) (HIV-1)
[34] = target: HIV-1 Env of isolate MGRM-G-016 (subtype G), on pseudovirus (HIV-1)
[35] = target: HIV-1 Env of isolate MGRM-C-015 (subtype C) (HIV-1)
[36] = target: HIV-1 Env of isolate MGRM-G-024 (subtype G), on pseudovirus (HIV-1)
[37] = target: HIV-1 Env of isolate 97ZA012 (subtype C) (HIV-1)
[38] = target: HIV-1 Env of isolate MGRM-C-013 (subtype C) (HIV-1)
[39] = target: HIV-1 Env of isolate MGRM-G-004 (subtype G), on pseudovirus (HIV-1)
[40] = target: HIV-1 Env of isolate MGRM-C-023 (subtype C) (HIV-1)
[41] = target: HIV-1 Env of isolate MGRM-C-026 (subtype C) (HIV-1)
[42] = target: HIV-1 Env of isolate MGRM-C-006 (subtype C) (HIV-1)
[43] = target: HIV-1 Env of isolate MGRM-C-012 (subtype C) (HIV-1)
[44] = target: HIV-1 Env of isolate MGRM-G-025 (subtype G), on pseudovirus (HIV-1)
[45] = target: HIV-1 Env of isolate 93TH305 (subtype B) (HIV-1)
[46] = target: HIV-1 Env of isolate APV 6 (subtype B) (HIV-1)
[47] = target: HIV-1 Env of isolate 92BR020 (subtype B) (HIV-1)
[48] = target: HIV-1 Env of isolate APV_17 (subtype B) (HIV-1)
[49] = target: HIV-1 Env of isolate APV 13 (subtype B) (HIV-1)
[50] = target: HIV-1 Env of isolate 6535.3 (subtype B) (HIV-1)

B1: PGT-126 (antibody, V domains shown)
VH: QPQLQESGPGLVEASETLSLTCTVSGDSTAACDYFWGWVRQPPGKGLEWIGGLSHCAGYYNTGWTYHNPSLKSRLTISLDTPKNQVFLKLNSVTAADTAIYYCARFDGEVLVYHDWPKPAWVDLWGRGTLVTVSS
VL: QSALTQPPSASGSPGQSISISCTGTSNRFVSWYQQHPGKAPKLVIYGVNKRPSGVPDRFSGSKSGNTASLTVSGLQTDDEAVYYCSSLVGNWDVIFGGGTKLTVL
[1]
  IC50 (µg/mL), neutralization of pseudovirus: > 50 µg/mL
[2]
  IC50 (µg/mL), neutralization of pseudovirus: 7.32 µg/mL
[3]
  IC50 (µg/mL), pseudovirus neutralization: 0.17 µg/mL
[4]
  IC50 (µg/mL), pseudovirus neutralization: > 50 µg/mL
[5]
  IC50 (µg/mL), neutralization of pseudovirus: > 50 µg/mL
[6]
  IC50 (µg/mL), pseudovirus neutralization: > 50 µg/mL
[7]
  Fold IC50 increase relative to wild-type: 1.9 fold
[8]
  IC50 (µg/mL), neutralization of pseudovirus: 0.875 µg/mL
[9]
  IC50 (µg/mL), pseudovirus neutralization: 0.298 µg/mL
[10]
  IC50 (µg/mL), pseudovirus neutralization: 0.96 µg/mL
[11]
  IC50 (µg/mL), neutralization of pseudovirus: 0.009 µg/mL
[12]
  IC50 (µg/mL), pseudovirus neutralization: 0.196 µg/mL
[13]
  IC50 (µg/mL), neutralization of pseudovirus: > 50 µg/mL
[14]
  IC50 (µg/mL), neutralization of pseudovirus: 48.8 µg/mL
[15]
  IC50 (µg/mL), pseudovirus neutralization: 0.033 µg/mL
[16]
  IC50 (µg/mL), pseudovirus neutralization: > 50 µg/mL
[17]
  IC50 (µg/mL), pseudovirus neutralization: 25.3 µg/mL
[18]
  IC50 (µg/mL), neutralization of pseudovirus: > 50 µg/mL
[19]
  IC50 (µg/mL), pseudovirus neutralization: 0.786 µg/mL
[20]
  IC50 (µg/mL), pseudovirus neutralization: 2.12 µg/mL
[21]
  IC50 (µg/mL), pseudovirus neutralization: > 50 µg/mL
[22]
  IC50 (µg/mL), pseudovirus neutralization: 0.005 µg/mL
[23]
  IC50 (µg/mL), neutralization of pseudovirus: 0.038 µg/mL
[24]
  IC50 (µg/mL), pseudovirus neutralization: > 50 µg/mL
[25]
  IC50 (µg/mL), neutralization of pseudovirus: > 50 µg/mL
[26]
  IC50 (µg/mL), neutralization of pseudovirus: 0.012 µg/mL
[27]
  IC50 (µg/mL), pseudovirus neutralization: 0.011 µg/mL
[28]
  IC50 (µg/mL), pseudovirus neutralization: 15.6 µg/mL
[29]
  Fold IC50 increase relative to wild-type: 2.7 fold
[30]
  IC50 (µg/mL), neutralization of pseudovirus: 0.018 µg/mL
[31]
  IC50 (µg/mL), pseudovirus neutralization: > 50 µg/mL
[32]
  IC50 (µg/mL), pseudovirus neutralization: 0.279 µg/mL
[33]
  IC50 (µg/mL), pseudovirus neutralization: 9.44 µg/mL
[34]
  IC50 (µg/mL), neutralization of pseudovirus: > 50 µg/mL
[35]
  IC50 (µg/mL), pseudovirus neutralization: 3.14 µg/mL
[36]
  IC50 (µg/mL), neutralization of pseudovirus: > 50 µg/mL
[37]
  IC50 (µg/mL), pseudovirus neutralization: 0.042 µg/mL
[38]
  IC50 (µg/mL), pseudovirus neutralization: > 50 µg/mL
[39]
  IC50 (µg/mL), neutralization of pseudovirus: > 50 µg/mL
[40]
  IC50 (µg/mL), pseudovirus neutralization: 0.065 µg/mL
[41]
  IC50 (µg/mL), pseudovirus neutralization: 0.007 µg/mL
[42]
  IC50 (µg/mL), pseudovirus neutralization: 0.014 µg/mL
[43]
  IC50 (µg/mL), pseudovirus neutralization: 0.111 µg/mL
[44]
  IC50 (µg/mL), neutralization of pseudovirus: 17.1 µg/mL

B2: PGT-128 (antibody, V domains shown)
VH: QPQLQESGPTLVEASETLSLTCAVSGDSTAACNSFWGWVRQPPGKGLEWVGSLSHCASYWNRGWTYHNPSLKSRLTLALDTPKNLVFLKLNSVTAADTATYYCARFGGEVLRYTDWPKPAWVDLWGRGTLVTVSS
VL: QSALTQPPSASGSPGQSITISCTGTSNNFVSWYQQHAGKAPKLVIYDVNKRPSGVPDRFSGSKSGNTASLTVSGLQTDDEAVYYCGSLVGNWDVIFGGGTKLTVL
[1]
  IC50 (µg/mL), neutralization of pseudovirus: > 50 µg/mL
[2]
  IC50 (µg/mL), neutralization of pseudovirus: 8.21 µg/mL
[45]
  IC50 (µg/mL), pseudovirus neutralization: 0.006 µg/mL
[5]
  IC50 (µg/mL), neutralization of pseudovirus: 0.319 µg/mL
[7]
  Fold IC50 increase relative to wild-type: 0.1 fold
[46]
  IC50 (µg/mL), pseudovirus neutralization: 0.007 µg/mL
[8]
  IC50 (µg/mL), neutralization of pseudovirus: 0.313 µg/mL
[47]
  IC50 (µg/mL), pseudovirus neutralization: 0.009 µg/mL
[11]
  IC50 (µg/mL), neutralization of pseudovirus: 0.004 µg/mL
[13]
  IC50 (µg/mL), neutralization of pseudovirus: > 50 µg/mL
[14]
  IC50 (µg/mL), neutralization of pseudovirus: 0.995 µg/mL
[48]
  IC50 (µg/mL), pseudovirus neutralization: 0.016 µg/mL
[49]
  IC50 (µg/mL), pseudovirus neutralization: 0.008 µg/mL
[18]
  IC50 (µg/mL), neutralization of pseudovirus: > 50 µg/mL
[23]
  IC50 (µg/mL), neutralization of pseudovirus: 0.019 µg/mL
[25]
  IC50 (µg/mL), neutralization of pseudovirus: > 50 µg/mL
[26]
  IC50 (µg/mL), neutralization of pseudovirus: 0.008 µg/mL
[30]
  IC50 (µg/mL), neutralization of pseudovirus: 0.01 µg/mL
[34]
  IC50 (µg/mL), neutralization of pseudovirus: > 50 µg/mL
[36]
  IC50 (µg/mL), neutralization of pseudovirus: 0.095 µg/mL
[39]
  IC50 (µg/mL), neutralization of pseudovirus: > 50 µg/mL
[44]
  IC50 (µg/mL), neutralization of pseudovirus: 0.017 µg/mL
[50]
  IC50 (µg/mL), pseudovirus neutralization: 0.011 µg/mL
